Test results taken from patent US20190119407A1 (Amgen, published 2019).
Changes are numbered by the printed parent chain.

What was measured:
human TNF-α = biological target: T1, human TNF-α (human, UniProt P01375 77-233); experiment: SPR, bispecific captured on anti-human Fc chip, TNF injected, 1:1 model
T1 construct: also called Hu TNF; soluble hu TNF
Experimental: Goat anti-human Fc was first immobilized on SCM5 sensor chip using amine coupling. […] On rate, off rate and equilibrium dissociation constant were calculated using 1:1 binding model on BIAevaluation software.

human TL1A [1] = biological target: T2, human TL1A (human, UniProt O95150 72-251, limits assumed); experiment: SPR, bispecific captured on anti-human Fc chip, TL1A injected, 1:1 model
T2 construct: The assays name only 'human TL1A protein'; also called huTL1A; Hu TL1A
T2 sequence (looked up): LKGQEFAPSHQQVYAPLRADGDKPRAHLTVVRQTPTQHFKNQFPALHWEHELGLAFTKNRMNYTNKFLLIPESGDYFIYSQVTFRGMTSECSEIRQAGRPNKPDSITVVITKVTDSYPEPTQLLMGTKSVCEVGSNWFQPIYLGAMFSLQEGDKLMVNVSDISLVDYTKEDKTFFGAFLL
Experimental: (§1) On rate, off rate and equilibrium dissociation constant were calculated using 1:1 binding model on BIAevaluation software.

human TL1A [2] = biological target: T2, human TL1A; experiment: cell-based or functional assay
cynomolgus TL1A [3] = biological target: T3, cynomolgus TL1A (cynomolgus monkey, UniProt G7PRK8 72-251); experiment: cell-based or functional assay
T3 sequence: T2 sequence (looked up) with F39L, I78V

human TL1A [4] = biological target: T2, human TL1A; experiment: SPR, Fab captured on anti-huFab chip, TL1A injected, 1:1 model
Experimental: as §1

cynomolgus TL1A [5] = biological target: T3, cynomolgus TL1A; experiment: as above
Experimental: as §1

cynomolgus TL1A [6] = biological target: T3, cynomolgus TL1A; experiment: SPR, Fab captured on anti-huFab chip, TL1A injected
Experimental: as §1

human TL1A [7] = biological target: T2, human TL1A; experiment: SPR, mAb captured on anti-human Fc chip, TL1A injected, 1:1 model
Experimental: as §1

cynomolgus TL1A [8] = biological target: T3, cynomolgus TL1A; experiment: as above
Experimental: as §1

T1 sequence (P01375 77-233 limits assumed): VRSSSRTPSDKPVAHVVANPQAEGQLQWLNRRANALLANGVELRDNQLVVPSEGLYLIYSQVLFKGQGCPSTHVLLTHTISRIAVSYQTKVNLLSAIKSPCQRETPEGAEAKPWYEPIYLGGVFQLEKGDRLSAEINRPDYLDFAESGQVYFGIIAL

B1: hetero Ig certolizumab var/2G11 var, iPS 349461 (bispecific antibody, human IgG1, kappa, N297G)
light 1: not shown
heavy 1: not shown
light 2: DIQMTQSPSSLSASVGDRVTITCRASQSINNYLNWYQKKPGKAPKLLIYATSSLQSGVPSRFSGSGSGTDFSLTISSLQPEDFATYFCQQSYSTPRTFGQGTKVEIKRTVAAPSVFIFPPSDEQLKSGTASVVCLLNNFYPREAKVQWKVDNALQSGNSQESVTEQDSKDSTYSLKSTLTLSKADYEKHKVYACEVTHQGLSSPVTKSFNRGEC
heavy 2: QVQLQESGPGLVKPSETLSLTCTVSGGSISSYFWSWIREPPGKGLEWIGYIYYSGSTNYNPSLKSRVTMSIDTSKNQFSLKLSSVTAADTAVYYCAREIGSYYGFDYWGQGTLVTVSSASTKGPSVFPLAPSSKSTSGGTAALGCLVKDYFPEPVTVSWNSGALTSGVHTFPAVLQSSGLYSLESVVTVPSSSLGTQTYICNVNHKPSNTKVDKKVEPKSCDKTHTCPPCPAPELLGGPSVFLFPPKPKDTLMISRTPEVTCVVVDVSHEDPEVKFNWYVDGVEVHNAKTKPCEEQYGSTYRCVSVLTVLHQDWLNGKEYKCKVSNKALPAPIEKTISKAKGQPREPQVYTLPPSRKEMTKNQVSLTCLVKGFYPSDIAVEWESNGQPENNYKTTPPVLKSDGSFFLYSKLTVDKSRWQQGNVFSCSVMHEALHNHYTQKSLSLSPGK
notes: Heterotetramer with one arm against TNF-α and one against TL1A; also called PL-42787
**Q.** B1 was tested. Which Kd (human TNF-α) did it give?
**A.** 0.019 nM

**Q.** And the koff (human TNF-α)?
**A.** 6.4e-05 s⁻¹

**Q.** And the kon (human TNF-α)?
**A.** 3.4e+06 M⁻¹ s⁻¹

**Q.** And the Kd (human TL1A [1])?
**A.** 0.25 nM

**Q.** What about the koff (human TL1A [1]) of the same binder?
**A.** 0.00013 s⁻¹

**Q.** And the kon (human TL1A [1])?
**A.** 540000 M⁻¹ s⁻¹

B2: anti-TL1A Fab 23B3 (Fab, V domains shown)
VH: QVQLQQSGPGLVKPSQTLSLTCVISGDSVSTNSVAWNWIRQSPSRGLEWLGRTYYRSKWYNDYAVSVKSRITINPDTSKNQFSLQLNSVTPEDTAVYYCAREDGDSYYRYGMDVWGQGTTVTVSS
VL: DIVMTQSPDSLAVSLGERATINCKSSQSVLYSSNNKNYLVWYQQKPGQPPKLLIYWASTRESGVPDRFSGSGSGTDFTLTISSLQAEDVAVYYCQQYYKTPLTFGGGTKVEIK
notes: Fab fragment; the Fab's constant parts are not; also called 23B3 Fab; PL-38024
**Q.** Which “NF-kB IC50 nM, huTL1A (0.2 nM)” value (human TL1A [2]) does the source give for B2 here?
**A.** 2.99 nM

**Q.** What about the “NF-kB IC50 nM, cyno TL1A (2 nM)” value (cynomolgus TL1A [3]) of the same binder?
**A.** 2.63 nM

**Q.** What about the Kd (human TL1A [4]) of the same binder?
**A.** 0.85 nM

**Q.** What about the koff (human TL1A [4]) of the same binder?
**A.** 0.00064 s⁻¹

**Q.** What about the kon (human TL1A [4]) of the same binder?
**A.** 760000 M⁻¹ s⁻¹

**Q.** And the Kd (cynomolgus TL1A [5])?
**A.** 0.31 nM

**Q.** And the koff (cynomolgus TL1A [5])?
**A.** 0.00016 s⁻¹

**Q.** What about the kon (cynomolgus TL1A [5]) of the same binder?
**A.** 530000 M⁻¹ s⁻¹

B3: hetero Ig certolizumab var/23B3 VH4, iPS 349463 (bispecific antibody, human IgG1, kappa, N297G)
light 1: not shown
heavy 1: not shown
light 2: not shown
heavy 2: QVQLQESGPGLVKPSETLSLTCTISGDSVSTNSVAWNWIREPPGKGLEWIGRTYYRSKWYNDYAVSLKSRVTISPDTSKNQFSLKLSSVTAADTAVYYCAREDGDSYYRYGMDVWGQGTTVTVSSASTKGPSVFPLAPSSKSTSGGTAALGCLVKDYFPEPVTVSWNSGALTSGVHTFPAVLQSSGLYSLESVVTVPSSSLGTQTYICNVNHKPSNTKVDKKVEPKSCDKTHTCPPCPAPELLGGPSVFLFPPKPKDTLMISRTPEVTCVVVDVSHEDPEVKFNWYVDGVEVHNAKTKPCEEQYGSTYRCVSVLTVLHQDWLNGKEYKCKVSNKALPAPIEKTISKAKGQPREPQVYTLPPSRKEMTKNQVSLTCLVKGFYPSDIAVEWESNGQPENNYKTTPPVLKSDGSFFLYSKLTVDKSRWQQGNVFSCSVMHEALHNHYTQKSLSLSPGK
notes: Heterotetramer with one arm against TNF-α and one against TL1A; also called PL-42788
**Q.** How did the Kd (human TNF-α) turn out when B3 was run?
**A.** 0.016 nM

**Q.** And the koff (human TNF-α)?
**A.** 5.5e-05 s⁻¹

**Q.** What about the kon (human TNF-α) of the same binder?
**A.** 3.4e+06 M⁻¹ s⁻¹

**Q.** What about the Kd (human TL1A [1]) of the same binder?
**A.** 0.64 nM

**Q.** What about the koff (human TL1A [1]) of the same binder?
**A.** 0.0004 s⁻¹

**Q.** What about the kon (human TL1A [1]) of the same binder?
**A.** 630000 M⁻¹ s⁻¹

B4: anti-TL1A Fab 3C6 (Fab, V domains shown)
VH: QVQLVESGGGVVQPGRSLRLSCAASGFTFSSYGMHWVRQAPGKGLEWVAVISYDGNNKLYTDSVKGRFTISRDDSKSTLYLQMNSLRAEDTAVYYCARDPTVTLYYYYGMDVWGQGTTVTVSS
VL: DIQMTQSPSSLSASVGDRVTITCRTSQDIRDDLGWYQQKPGKAPKRLIYDASSLQSGVPSRFSGSGSGTEFTLTISSLQPEDFATYYCLQHNSYPPTFGQGTKVEIK
notes: Fab fragment; the Fab's constant parts are not; also called 3C6 Fab; PL-39193
**Q.** With B4 as the binder, how does the “NF-kB IC50 nM, huTL1A (0.2 nM)” value (human TL1A [2]) read?
**A.** 0.162 nM

**Q.** And the “NF-kB IC50 nM, cyno TL1A (2 nM)” value (cynomolgus TL1A [3])?
**A.** > 100 nM

**Q.** Does B4 bind (cynomolgus TL1A [6])?
**A.** no binding (tested: 100 nM)

**Q.** What about the Kd (human TL1A [4]) of the same binder?
**A.** < 0.1 nM

**Q.** What about the koff (human TL1A [4]) of the same binder?
**A.** < 5e-05 s⁻¹

B5: anti-TL1A Fab 17E9 (Fab, V domains shown)
VH: B4 VH with F29L, I51M, T61A, D74N, S77K, P100E, V102E, M110I
VL: B4 VL with T25A, D28G, R30S, D31N, G34A, Y49F, D50A, Q100G
notes: Fab fragment; the Fab's constant parts are not; also called 17E9 Fab; PL-39194
**Q.** B5 was tested. Which “NF-kB IC50 nM, huTL1A (0.2 nM)” value (human TL1A [2]) did it give?
**A.** 70.8 nM

**Q.** What about the “NF-kB IC50 nM, cyno TL1A (2 nM)” value (cynomolgus TL1A [3]) of the same binder?
**A.** > 100 nM

**Q.** Does B5 bind (cynomolgus TL1A [6])?
**A.** no binding (tested: 100 nM)

**Q.** What about the Kd (human TL1A [4]) of the same binder?
**A.** < 0.1 nM

**Q.** And the koff (human TL1A [4])?
**A.** < 5e-05 s⁻¹

B6: anti-TL1A mAb 17E9 (antibody, human IgG1, kappa, N297G, V domains shown)
VH: B4 VH with F29L, I51M, T61A, D74N, S77K, P100E, V102E, M110I
VL: DIQMTQSPSSLSASVGDRVTITCRASQGISNDLAWYQQKPGKAPKRLIFAASSLQSGVPSRFSGSGSGTEFTLTISSLQPEDFATYYCLQHNSYPPTFGGGTKVEIKR
notes: also called PL-39113; iPS 284078
**Q.** With B6 as the binder, how does the “NF-kB IC50 nM, huTL1A (0.2 nM)” value (human TL1A [2]) read?
**A.** 0.168 nM

**Q.** What about the “NF-kB IC50 nM, cyno TL1A (2 nM)” value (cynomolgus TL1A [3]) of the same binder?
**A.** > 100 nM

**Q.** And the Kd (human TL1A [7])?
**A.** 0.22 nM

**Q.** What about the koff (human TL1A [7]) of the same binder?
**A.** 5.3e-05 s⁻¹

**Q.** What about the kon (human TL1A [7]) of the same binder?
**A.** 250000 M⁻¹ s⁻¹

**Q.** And the Kd (cynomolgus TL1A [8])?
**A.** 2.8 nM

**Q.** And the koff (cynomolgus TL1A [8])?
**A.** 0.002 s⁻¹

**Q.** What about the kon (cynomolgus TL1A [8]) of the same binder?
**A.** 730000 M⁻¹ s⁻¹
